B1: Proliferating cell nuclear antigen (Saccharomyces cerevisiae), P15873 (parent)
chain: MLEAKFEEASLFKRIIDGFKDCVQLVNFQCKEDGIIAQAVDDSRVLLVSLEIGVEAFQEYRCDHPVTLGMDLTSLSKILRCGNNTDTLTLIADNTPDSIILLFEDTKKDRIAEYSLKLMDIDADFLKIEELQYDSTLSLPSSEFSKIVRDLSQLSDSINIMITKETIKFVADGDIGSGSVIIKPFVDMEHPETSIKLEMDQPVDLTFGAKYLLDIIKGSSLSDRVGIRLSSEAPALFQFDLKSGFLQFFLAPKFNDEE
B2: Proliferating cell nuclear antigen (Saccharomyces cerevisiae), P15873 (parent)
chain: B1 chain
partner: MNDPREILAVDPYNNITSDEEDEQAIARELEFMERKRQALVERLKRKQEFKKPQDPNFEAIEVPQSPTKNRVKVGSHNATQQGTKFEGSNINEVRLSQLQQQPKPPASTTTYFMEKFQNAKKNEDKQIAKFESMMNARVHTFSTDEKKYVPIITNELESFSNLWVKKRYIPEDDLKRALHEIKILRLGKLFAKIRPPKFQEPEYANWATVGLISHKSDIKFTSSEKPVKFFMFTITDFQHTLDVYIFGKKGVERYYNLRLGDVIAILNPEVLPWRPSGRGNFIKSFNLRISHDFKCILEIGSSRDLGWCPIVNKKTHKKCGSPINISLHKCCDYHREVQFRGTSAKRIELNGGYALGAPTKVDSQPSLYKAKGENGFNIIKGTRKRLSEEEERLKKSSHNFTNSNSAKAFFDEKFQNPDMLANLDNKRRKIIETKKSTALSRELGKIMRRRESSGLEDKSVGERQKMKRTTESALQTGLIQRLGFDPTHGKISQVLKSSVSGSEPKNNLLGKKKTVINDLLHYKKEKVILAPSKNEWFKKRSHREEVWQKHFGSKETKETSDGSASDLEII
B3: Minichromosome maintenance protein 10 (Saccharomyces cerevisiae), P32354 (parent)
chain: B2 partner

Variants of: B1
Details: with dpod3_yeast POL32, P47110
Chain of dpod3_yeast POL32, P47110 (P47110 whole entry): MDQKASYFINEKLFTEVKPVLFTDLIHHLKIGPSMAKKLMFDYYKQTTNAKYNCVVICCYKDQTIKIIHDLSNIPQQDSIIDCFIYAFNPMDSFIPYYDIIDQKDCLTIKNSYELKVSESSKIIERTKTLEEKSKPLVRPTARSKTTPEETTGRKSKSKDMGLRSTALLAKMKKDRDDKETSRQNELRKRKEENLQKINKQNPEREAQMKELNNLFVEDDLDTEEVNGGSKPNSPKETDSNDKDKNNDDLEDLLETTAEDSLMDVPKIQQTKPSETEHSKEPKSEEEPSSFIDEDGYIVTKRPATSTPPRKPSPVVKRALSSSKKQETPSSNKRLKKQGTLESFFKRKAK

| effect of a mutation on the interaction | Variant |
| --- | --- |
| decreasing interaction | A251V |
| decreasing interaction | Y133L |
| decreasing interaction | Y133A |

Variants of: B2
Details: with mcm10_yeast MCM10, P32354

| effect of a mutation on the interaction | Variant |
| --- | --- |
| decreasing interaction | Y133A |
| disrupting interaction | A251V |

Variants of: B3
Details: with pcna_yeast POL30, P15873

| effect of a mutation on the interaction | Variant |
| --- | --- |
| disrupting interaction | Y245A |
| disrupting interaction | L242A |
| decreasing interaction | L242Y |

— IntAct's records for PubMed 16782870
